test: soluble on expression in E. coli; label from the status in PepcDB or PDB records

Q: With “MDFRANLQRQVKPKTVSEEERKVHSPQQVDFRSVLAKKGTSKTPVPEKVPPPKPATPDFRSVLGGKKKLPAENGSSSAETLNAKAVESSKPLSNAQPSGPLKPVGNAKPAETLKPMGNAKPAETLKPMGNAKPDENLKSASKELKKDVKNDVNCKRGHAGTTDNEKRSESQGTAPAFKQKLQDVHVAEGKKLLLQCQVSSDPPATIIWTLNGKTLKTTKFIILSQEGSLCSVSIEKALPEDRGLYKCVAKNDAGQAECSCQVTVDDAPASENTKAPEMKSRRPKSSLPPVLGTESDATVKKKPAPKTPPKAAMPPQIIQFPEDQKVRAGESVELFGKVTGTQPITCTWMKFRKQIQESEHMKVENSENGSKLTILAARQEHCGCYTLLVENKLGSRQAQVNLTVVDKPDPPAGTPCASDIRSSSLTLSWYGSSYDGGSAVQSYSIEIWDSANKTWKELATCRSTSFNVQDLLPDHEYKFRVRAINVYGTSEPSQESELTTVGEKPEEPKDEVEVSDDDEKEPEVDYRTVTINTEQKVSDFYDIEERLGSGKFGQVFRLVEKKTRKVWAGKFFKAYSAKEKENIRQEISIMNCLHHPKLVQCVDAFEEKANIVMVLEIVSGGELFERIIDEDFELTERECIKYMRQISEGVEYIHKQGIVHLDLKPENIMCVNKTGTRIKLIDFGLARRLENAGSLKVLFGTPEFVAPEVINYEPIGYATDMWSIGVICYILVSGLSPFMGDNDNETLANVTSATWDFDDEAFDEISDDAKDFISNLLKKDMKNRLDCTQCLQHPWLMKDTKNMEAKKLSKDRMKKYMARRKWQKTGNAVRAIGRLSSMAMISGLSGRKSSTGSPTSPLNAEKLESEEDVSQAFLEAVAEEKPHVKPYFSKTIRDLEVVEGSAARFDCKIEGYPDPEVVWFKDDQSIRESRHFQIDYDEDGNCSLIISDVCGDDDAKYTCKAVNSLGEATCTAELIVETMEEGEGEGEEEEE” as the sequence, how does the “soluble on expression in E. coli” value read?
A: soluble

Q: Which “soluble on expression in E. coli” value does the source give for “GPGSMCKLHVKRTAAHSSCAVTKDNFNAIGYGARLVFKICNIADCIVRNGESNRVLSVSSTIMSMSVIHGGITIQTIPVHCVFNYELCNPLRMAHVDRQKCAPGYVVSDPLPEINEYSDADVVIKNLLSAHSLHDAHEKNAFTALVRAMISDRDMQKLGGNTEADQYALIGVFLILYGPGSIKIANQENELVPKKHVDYCGKKQIMNLTRKNHDT” here?
A: not soluble

Q: With “MPEPDKQATRKKRTTSSLTDSTVFDPAKQVLWSRPGYLVRRLNQIHYALFYEECKTQNVTPVQYGVLTALSLSPWLDQTAIGMELGLDRTTTADVIKRLQERGLVERRVNPNDKRSRQAVITQEGLRIMGLLQGGMARAQQRLLEPLSPRNREIFMKLLSTLVDANNQYSRTALKAM” as the sequence, how does the “soluble on expression in E. coli” value read?
A: not soluble

Q: With “GPGSMAETTIGFRCQDFVLVAAAGLNAFYYIKITDTEDKITELDSHKVVACAGENGPRTHFVEYVKCNMALKKMREHGRMISTHATASFMRNTLAGALRSRDGLYPVNCLLAGFDVPASAEDDVATGAHLYYLDYLGTLQEVPYGCHGYGAPFVTAMLDRMWRPNLTAQEGVELMQKCCDEVKKRVVVSNNTFICKAVTKDGVERVQSVS” as the sequence, how does the “soluble on expression in E. coli” value read?
A: soluble

Q: Which “soluble on expression in E. coli” value does the source give for “MQLTIKNKDLNTLYRVLDKIKITNMRANRGRAKLLAKVVDKINEYAKDETDLIDMYAAKDKDDKFVIDEHKNIKLADPAKLDELNDLLNELADEEIVIKGGEYSKRFIDFLNFLEECEDEFTSSEIILIDNILEQFEESKKGE” here?
A: not soluble

Q: For “MPILGHNILKIEFEKLQTLGGKIEVSLRPTIRNLRLGEMHLPSGKVKGIEVDVDYIITYSPEVARASIKVRVFYVPRNKEDIDNILDEWEDRKVLPGELVAEVVNFTTSELMPIAMYIAKEMRIPYPVPLPRAVVRGE”, which “soluble on expression in E. coli” value is on record?
A: soluble

Q: For “MHIISLLLENEPGALSRVVGLFSQRNYNIESLTVAPTEDPTLSRLTLTTVGHDEVIEQITKNLNKLIEVVKLVDL”, which “soluble on expression in E. coli” value is on record?
A: soluble

Q: For “MSLSAAEALTRIDRFVCDIKETQYGDGLHVFGAGDHGTGEIDGLIAALSARFVPPGPSGSPYRGRSDVRPTGRNLFTTDPRAVPSRAAYTQGVKLAEELLRKHLQDHGDWPKGLVMDMWGSATIRTAGEEFAMALHLAGLSPRWDDGSDRVSGFDILPLALLNRPRIDVTLRVSGLFRDMFPGLAQLFETAIAKLAERPETAADNPYLVQTPRVFGPRPGSYGLGIGTAMDDYSDEARTAAGEAWLAASSYAIDARGEITYARDALETQLTRADSFVHLQDLPETDLLMAEDYAAHEAGFAAAMQRLGKGGAAALYHLDATRPDQPRARTLTEELARVVRARAANPDWATGMMAHGFRGAAEIAATLDHLAAFAHLAGVVPDHLFDAMFDATLGRDDLVDFMQDANPQALAALRARFDALHRAGLWTSRRNSVLAELGTPAEGHHHHHH”, which “soluble on expression in E. coli” value is on record?
A: soluble

Reference: the DeepSol protein solubility set
